Results from article PMC8670242, “Functional Characterization and Structural Insights Into Stereoselectivity of Pulegone Reductase in Menthol Biosynthesis” (Frontiers in Plant Science, 2021).

Assays:
[1] = substrate: CC(C)=C1CC[C@@H](C)CC1=O; experiment: chiral GC of menthone/isomenthone formed, Michaelis-Menten; assay type: biochemical, Mentha x piperita; settings: 10 mM NADPH with glucose-6-phosphate/G6PDH regeneration, pH 7.5, 31 °C, n-hexane overlay
[2] = substrate: CC(C)=C1CC[C@H](C)CC1=O; experiment: as above; assay type: biochemical, Mentha x piperita; settings: 10 mM NADPH with glucose-6-phosphate/G6PDH regeneration, pH 7.5, 31 °C, n-hexane overlay

B1: MpPR (Mentha x piperita) (protein)
chain: MVMNKQIVLNNYINGSLKQSDLALRTSTICMEIPDGCNGAILVKNLYLSVNPYLILRMGKLDIPQFDSILPGSTIVSYGVSKVLDSTHPSYEKGELIWGSQAGWEEYTLIQNPYNLFKIQDKDVPLSYYVGILGMPGMTAYAGFFEICSPKKGETVFVTAAAGSVGQLVGQFAKMFGCYVVGSAGSKEKVDLLKNKFGFDDAFNYKEESDYDTALKRHFPEGIDIYFDNVGGKMLEAVINNMRVHGRIAVCGMVSQYSLKQPEGVHNLLKLIPKQIRMQGFVVVDYYHLYPKFLEMVLPRIKEGKVTYVEDISEGLESAPSALLGVYVGRNVGNQVVAVSRE
notes: pET28a His-tag fusion, E. coli BL21(DE3), Ni-NTA and gel filtration; homodimer; EC 1.3.1.81
Km [1]: 3.00 µM
kcat [1]: 863.66 10^-4 s^-1
Km [2]: 8.63 µM
kcat [2]: 1595.06 10^-4 s^-1
